Experimental data: patent US20110159009A1

Biological target: mouse VEGF-A (mouse) (UniProt Q00731)
Experiment: cell-based or functional assay

mouse VEGF-A (mouse), sequence (Q00731 other isoform, or with tags, fused parts or gaps limits assumed): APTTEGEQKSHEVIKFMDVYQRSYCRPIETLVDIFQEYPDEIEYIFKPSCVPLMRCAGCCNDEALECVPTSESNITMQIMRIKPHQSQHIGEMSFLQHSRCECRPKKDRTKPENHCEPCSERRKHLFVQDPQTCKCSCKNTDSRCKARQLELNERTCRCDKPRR

BRME proliferation (Alamar blue): > 1500 nM
Substance: Bevacizumab (BV) (antibody)
